In assay [1] the target is Bacillus anthracis protective antigen (PA) (Bacillus anthracis) (UniProt P13423).
For assay [2] the target is unchanged. This is another data set of the same source.

Chain of UniProt P13423 (P13423 30-764 limits assumed): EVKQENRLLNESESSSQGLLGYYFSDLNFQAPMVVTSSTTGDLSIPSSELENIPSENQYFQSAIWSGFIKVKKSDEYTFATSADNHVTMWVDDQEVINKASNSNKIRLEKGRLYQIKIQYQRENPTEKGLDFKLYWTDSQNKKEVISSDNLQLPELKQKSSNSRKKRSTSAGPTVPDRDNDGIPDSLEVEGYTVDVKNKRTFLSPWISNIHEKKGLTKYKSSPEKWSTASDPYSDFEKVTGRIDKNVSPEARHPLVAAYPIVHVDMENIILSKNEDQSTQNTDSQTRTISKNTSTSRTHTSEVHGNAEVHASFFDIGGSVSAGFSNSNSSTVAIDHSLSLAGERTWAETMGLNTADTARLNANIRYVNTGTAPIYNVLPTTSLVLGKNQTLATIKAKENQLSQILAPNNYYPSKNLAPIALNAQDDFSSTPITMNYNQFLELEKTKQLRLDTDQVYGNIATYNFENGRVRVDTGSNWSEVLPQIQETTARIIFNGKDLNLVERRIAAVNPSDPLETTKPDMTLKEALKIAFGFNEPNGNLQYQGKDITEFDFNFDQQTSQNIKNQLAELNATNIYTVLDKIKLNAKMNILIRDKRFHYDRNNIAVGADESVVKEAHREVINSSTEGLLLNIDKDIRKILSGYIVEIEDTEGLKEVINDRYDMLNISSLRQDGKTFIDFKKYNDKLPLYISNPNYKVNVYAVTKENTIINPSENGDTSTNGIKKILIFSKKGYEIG

In assay [1], “NlpA-[14B7 scFv], anchored on the E. coli inner membrane (APEx)” had a mean fluorescence of 30. Further, the fold higher mean fluorescence intensity compared to controls in assay [2] is 9 fold.
For the substance “NlpA-[M18 scFv], anchored on the E. coli inner membrane (APEx)”, the mean fluorescence in assay [1] worked out at 250.

Values taken from patent publication WO2005095988A2.
